The record followed here is PMC7034832, “Systematic analysis of the binding behaviour of UHRF1 towards different methyl- and carboxylcytosine modification patterns at CpG dyads”.

The term Kd denotes a measure of binding affinity in units of concentration.

The target in series [1] is T1, SRA domain of mouse UHRF1 (Mus musculus, UniProt Q8VDF2 419-628).
T1 sequence: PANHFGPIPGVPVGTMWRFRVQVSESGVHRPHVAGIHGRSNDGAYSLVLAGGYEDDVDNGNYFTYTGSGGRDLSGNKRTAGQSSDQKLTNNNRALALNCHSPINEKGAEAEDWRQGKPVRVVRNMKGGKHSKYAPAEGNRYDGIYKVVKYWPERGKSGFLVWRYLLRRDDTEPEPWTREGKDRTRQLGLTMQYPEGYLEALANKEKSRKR
The series is described as follows: MST; MST: PBS-T (0.05% Tween-20), 50 nM labelled SRA, 20 min, room temperature; EMSA: 20 mM Tris-HCl pH 7.5, 150 mM NaCl, 0.5 mM EDTA, 1 mM DTT, 100 ng/ul BSA, 250 nM of each DNA, 4.69-300 nM protein, 30 min on ice, 6% PAGE 0.5x TBE; melting: 50 mM Tris-HCl pH 7.5, 0.5 mM b-ME, 10 mM EDTA. The conditions noted are these: protein: recombinant, tags: His6, NT-647 (RED-tris-NTA) label in MST.

In a further series the target is T2, GFP-mUHRF1 (Np95) (Mus musculus, UniProt Q8VDF2 1-782).
T2 sequence: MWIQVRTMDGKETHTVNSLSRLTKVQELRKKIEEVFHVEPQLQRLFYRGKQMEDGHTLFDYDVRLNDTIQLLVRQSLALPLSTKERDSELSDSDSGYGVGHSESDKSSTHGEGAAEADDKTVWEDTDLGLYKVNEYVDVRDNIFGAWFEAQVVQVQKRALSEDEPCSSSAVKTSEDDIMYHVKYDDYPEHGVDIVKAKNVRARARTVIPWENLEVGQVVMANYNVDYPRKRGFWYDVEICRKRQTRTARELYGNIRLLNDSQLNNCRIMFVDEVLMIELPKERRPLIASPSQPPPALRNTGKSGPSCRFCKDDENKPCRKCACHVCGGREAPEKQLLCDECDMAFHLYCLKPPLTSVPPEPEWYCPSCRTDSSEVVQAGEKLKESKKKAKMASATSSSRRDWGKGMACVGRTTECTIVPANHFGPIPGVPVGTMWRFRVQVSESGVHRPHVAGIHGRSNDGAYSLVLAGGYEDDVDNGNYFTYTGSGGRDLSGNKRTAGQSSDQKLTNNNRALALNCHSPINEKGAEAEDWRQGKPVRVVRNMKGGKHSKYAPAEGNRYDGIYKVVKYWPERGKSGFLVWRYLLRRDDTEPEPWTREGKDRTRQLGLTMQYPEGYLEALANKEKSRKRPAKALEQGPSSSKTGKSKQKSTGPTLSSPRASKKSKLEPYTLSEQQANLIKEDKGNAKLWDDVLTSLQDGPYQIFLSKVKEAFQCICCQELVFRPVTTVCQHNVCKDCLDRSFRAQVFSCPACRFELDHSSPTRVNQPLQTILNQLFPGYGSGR
The series is described as follows: EMSA, two-colour competition; ATTO647N C-C' DNA as competitor; MST: PBS-T (0.05% Tween-20), 50 nM labelled SRA, 20 min, room temperature; EMSA: 20 mM Tris-HCl pH 7.5, 150 mM NaCl, 0.5 mM EDTA, 1 mM DTT, 100 ng/ul BSA, 250 nM of each DNA, 4.69-300 nM protein, 30 min on ice, 6% PAGE 0.5x TBE; melting: 50 mM Tris-HCl pH 7.5, 0.5 mM b-ME, 10 mM EDTA. The conditions noted are these: protein: recombinant; tags: GFP (N-terminal by name); label: ATTO550 (EMSA).

The target in the next series is T3, mUHRF2-GFP (Mus musculus, UniProt Q7TMI3 1-803).
T3 sequence: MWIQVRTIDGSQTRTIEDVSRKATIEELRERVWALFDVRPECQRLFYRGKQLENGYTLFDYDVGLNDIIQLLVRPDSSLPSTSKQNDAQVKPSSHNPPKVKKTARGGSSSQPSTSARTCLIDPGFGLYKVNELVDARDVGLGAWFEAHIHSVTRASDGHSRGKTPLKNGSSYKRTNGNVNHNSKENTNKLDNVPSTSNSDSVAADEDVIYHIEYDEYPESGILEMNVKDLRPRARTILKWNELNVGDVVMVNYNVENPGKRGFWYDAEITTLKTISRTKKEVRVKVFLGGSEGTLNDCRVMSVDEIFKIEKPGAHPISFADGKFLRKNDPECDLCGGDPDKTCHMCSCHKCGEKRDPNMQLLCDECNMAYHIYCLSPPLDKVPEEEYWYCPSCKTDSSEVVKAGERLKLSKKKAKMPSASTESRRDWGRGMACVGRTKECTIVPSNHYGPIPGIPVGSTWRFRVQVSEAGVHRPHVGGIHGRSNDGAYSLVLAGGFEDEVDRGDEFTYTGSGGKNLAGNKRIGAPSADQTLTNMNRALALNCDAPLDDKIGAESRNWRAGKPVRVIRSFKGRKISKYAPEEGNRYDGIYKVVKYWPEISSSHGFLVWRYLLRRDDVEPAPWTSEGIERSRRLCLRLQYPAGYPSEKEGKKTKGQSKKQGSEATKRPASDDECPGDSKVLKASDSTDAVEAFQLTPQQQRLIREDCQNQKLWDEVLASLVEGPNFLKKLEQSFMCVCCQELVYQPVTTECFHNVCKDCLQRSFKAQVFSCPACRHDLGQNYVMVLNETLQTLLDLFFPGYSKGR
The description is as above. The conditions noted are these: protein: recombinant; tags: GFP (C-terminal by name); label: ATTO550 (EMSA). A general note: Mobility shift assays separate free from complexed probe on a gel.

B1: 42 bp C-C' (dsDNA)
DNA 1: GGATGATGACTCTTCTGGTCCGGATGGTAGTTAAGTGTTGAG
DNA 2: CTCAACACTTAACTACCATCCGGACCAGAAGAGTCATCATCC
modifications: none
Take B1: in series [1] (label: ATTO550 or ATTO647N (EMSA)), the dissociation constant Kd worked out at 1100 ± 150 nM.

B2: 42 bp caC-C' (dsDNA)
DNA 1: B1 DNA 1
DNA 2: B1 DNA 2
modifications: 5-carboxylcytosine at central CpG, one strand
With B2, in series [1] (label: ATTO550 (EMSA)), the Kd was found to be 1100 ± 290 nM.

B3: 42 bp caC-caC' (dsDNA)
DNA 1: B1 DNA 1
DNA 2: B1 DNA 2
modifications: 5-carboxylcytosine at central CpG, both strands
Turning to B3, in series [1] (label: ATTO550 (EMSA)), the Kd stood at 230 ± 50 nM. The binding signal with GFP-mUHRF1 (Np95) and with mUHRF2-GFP was about 2 fold vs C-C' in each case.

B4: 42 bp mC-C' (dsDNA)
DNA 1: B1 DNA 1
DNA 2: B1 DNA 2
modifications: 5-methylcytosine at central CpG, one strand
For the molecule B4, the equilibrium dissociation constant (Kd) in series [1] (label: ATTO550 (EMSA)) is 750 ± 110 nM. Besides, the binding signal with GFP-mUHRF1 (Np95) is about 1.5 fold vs C-C'.

B5: 42 bp mC-caC' (dsDNA)
DNA 1: B1 DNA 1
DNA 2: B1 DNA 2
modifications: 5-methylcytosine on one strand, 5-carboxylcytosine on the other at central CpG
For the molecule B5, the Kd in series [1] was found to be 390 ± 110 nM.
